Measurements: patent publication US11851495 (Boehringer Ingelheim, dated 2023)

Key:
cadherin-17 (CDH17) = cadherin-17 (CDH17) (human, UniProt Q12864 23-832); test: cell-based or functional assay
[1] = molecular target: TNF-related apoptosis-inducing ligand receptor 2 (TRAILR2) (human, UniProt O14763 56-440); test: cell-based or functional assay

Binder	cell viability of Colo-205 cells, 24 h (cadherin-17 (CDH17)) [nM]	cell viability of Colo-205 cells, 24 h [1] [nM]	concentration needed for an effect on viability of HepG2 cells (CDH17 negative), 72 h [1] [nM]	cell viability of Colo-205 cells, 24 h (CellTiter-Glo) (cadherin-17 (CDH17)) [fold]	cell viability of Colo-205 cells, 24 h (CellTiter-Glo) [1] [fold]
CDH17A6/TR2v2-(IgG1 KO) (bispecific antibody) heavy: not shown light: DIVMTQSQKFMSTTVGDRVSITCKASQNVGTGVVWYQQRPGQSPKLLIYSPSNRYTGVPDRFTGSGSGTDFTLTITNIQSEDLADYFCQQYSTYPWTFGGGTKLEIKRTVAAPSVFIFPPSDEQLKSGTASVVCLLNNFYPREAKVQWKVDNALQSGNSQESVTEQDSKDSTYSLSSTLTLSKADYEKHKVYACEVTHQGLSSPVTKSFNRGEC	0.01	0.01			
CDH17E2/TR2v2-(IgG1 KO) (bispecific antibody) heavy: not shown light: DIVMTQSQKFMSTTVGDRVNITCKASQNVGTAVAWYQQKPGQSPKLLIYSASNRYTGVPDRFTGSGSGTDFTLTITNMQSKDLADYFCQQYSSYPWTFGGGTKLEIKRTVAAPSVFIFPPSDEQLKSGTASVVCLLNNFYPREAKVQWKVDNALQSGNSQESVTEQDSKDSTYSLSSTLTLSKADYEKHKVYACEVTHQGLSSPVTKSFNRGEC	0.01	0.01			
anti-TRAILR2 antibody (anti-TR2v2) (antibody, V domains shown) VH: EVQLVQSGGGVERPGGSLRLSCAASGFTFDDYGMSWVRQAPGKGLEWVSGINWNGGSTGYADSVKGRVTISRDNAKNSLYLQMNSLRAEDTAVYYCAKILGAGRGWYFDLWGKGTTVTVSS VL: SSELTQDPAVSVALGQTVRITCQGDSLRSYYASWYQQKPGQAPVLVIYGKNNRPSGIPDRFSGSSSGNTASLTITGAQAEDEADYYCNSRDSSGNHVVFGGGTKLTVL		0.01			
CDH17H2/TR2v2-(IgG1 KO) (bispecific antibody) heavy: not shown light: DIQMTQSQSSLSASVGDRVGITCKASQNVGTAVAWYQQKPGKAPKLLIYSASNRYTGVPSRFSGSGSGTDFTLTISSLQPKDFATYFCQQYSSYPWTFGQGTKLEIKRTVAAPSVFIFPPSDEQLKSGTASVVCLLNNFYPREAKVQWKVDNALQSGNSQESVTEQDSKDSTYSLSSTLTLSKADYEKHKVYACEVTHQGLSSPVTKSFNRGEC	0.01	0.01	> 1		
CDH17H2/TR2v7-(IgG1 KO) (bispecific antibody) heavy: not shown light: DIQMTQSQSSLSASVGDRVGITCKASQNVGTAVAWYQQKPGKAPKLLIYSASNRYTGVPSRFSGSGSGTDFTLTISSLQPKDFATYFCQQYSSYPWTFGQGTKLEIKRTVAAPSVFIFPPSDEQLKSGTASVVCLLNNFYPREAKVQWKVDNALQSGNSQESVTEQDSKDSTYSLSSTLTLSKADYEKHKVYACEVTHQGLSSPVTKSFNRGEC	0.01	0.01	> 1		
CDH17H2/TR2v6-(IgG1 KO) (bispecific antibody) heavy: not shown light: DIQMTQSQSSLSASVGDRVGITCKASQNVGTAVAWYQQKPGKAPKLLIYSASNRYTGVPSRFSGSGSGTDFTLTISSLQPKDFATYFCQQYSSYPWTFGQGTKLEIKRTVAAPSVFIFPPSDEQLKSGTASVVCLLNNFYPREAKVQWKVDNALQSGNSQESVTEQDSKDSTYSLSSTLTLSKADYEKHKVYACEVTHQGLSSPVTKSFNRGEC	0.01	0.01	> 1		
CDH17H2/TR2v3-(IgG1 KO) (bispecific antibody) heavy: not shown light: DIQMTQSQSSLSASVGDRVGITCKASQNVGTAVAWYQQKPGKAPKLLIYSASNRYTGVPSRFSGSGSGTDFTLTISSLQPKDFATYFCQQYSSYPWTFGQGTKLEIKRTVAAPSVFIFPPSDEQLKSGTASVVCLLNNFYPREAKVQWKVDNALQSGNSQESVTEQDSKDSTYSLSSTLTLSKADYEKHKVYACEVTHQGLSSPVTKSFNRGEC	0.01	0.01	> 1		
CDH17H2/TR2v5-(IgG1 KO) (bispecific antibody) heavy: not shown light: DIQMTQSQSSLSASVGDRVGITCKASQNVGTAVAWYQQKPGKAPKLLIYSASNRYTGVPSRFSGSGSGTDFTLTISSLQPKDFATYFCQQYSSYPWTFGQGTKLEIKRTVAAPSVFIFPPSDEQLKSGTASVVCLLNNFYPREAKVQWKVDNALQSGNSQESVTEQDSKDSTYSLSSTLTLSKADYEKHKVYACEVTHQGLSSPVTKSFNRGEC	0.01	0.01	> 1		
CDH17H2/TR2v4-(IgG1 KO) (bispecific antibody) heavy: not shown light: DIQMTQSQSSLSASVGDRVGITCKASQNVGTAVAWYQQKPGKAPKLLIYSASNRYTGVPSRFSGSGSGTDFTLTISSLQPKDFATYFCQQYSSYPWTFGQGTKLEIKRTVAAPSVFIFPPSDEQLKSGTASVVCLLNNFYPREAKVQWKVDNALQSGNSQESVTEQDSKDSTYSLSSTLTLSKADYEKHKVYACEVTHQGLSSPVTKSFNRGEC	0.01	0.01	> 1		
CDH17E9/TR2v2-(IgG1 KO) (bispecific antibody) heavy: not shown light: DIVMTQSQTFMSTTVGDRVSITCKASQNVGTALAWYQQKPRQSPKLLIYSASNRFTGVPDRFTGSGSGTDFTLTISNMRSEDLADYVCQQYSTYPLTFGSGTKLEIRRTVAAPSVFIFPPSDEQLKSGTASVVCLLNNFYPREAKVQWKVDNALQSGNSQESVTEQDSKDSTYSLSSTLTLSKADYEKHKVYACEVTHQGLSSPVTKSFNRGEC	0.01	0.01			
CDH17v1/TR2v1 (bispecific antibody, human IgG1, kappa) heavy: not shown light: DIVMSQSPSSLAVSVGEKVTMSCKSSQSLLHSSNQKNYLAWYQQKPGQSPKVLIYWASTRESGVPDRFTGSGSGTDFTLTITSVKSEDLAVYYCQQYYSYPWTFGGGTRLEIKRTVAAPSVFIFPPSDEQLKSGTASVVCLLNNFYPREAKVQWKVDNALQSGNSQESVTEQDSKDSTYSLSSTLTLSKADYEKHKVYACEVTHQGLSSPVTKSFNRGEC				> 1000	> 1000
CDH17v1/TR2#8-(IgG1 KO) (bispecific antibody) heavy: not shown light: DIVMSQSPSSLAVSVGEKVTMSCKSSQSLLHSSNQKNYLAWYQQKPGQSPKVLIYWASTRESGVPDRFTGSGSGTDFTLTITSVKSEDLAVYYCQQYYSYPWTFGGGTRLEIKRTVAAPSVFIFPPSDEQLKSGTASVVCLLNNFYPREAKVQWKVDNALQSGNSQESVTEQDSKDSTYSLSSTLTLSKADYEKHKVYACEVTHQGLSSPVTKSFNRGEC	0.01	0.01			
CDH17v1/TR2v1-(IgG1 KO) (bispecific antibody) heavy: not shown light: DIVMSQSPSSLAVSVGEKVTMSCKSSQSLLHSSNQKNYLAWYQQKPGQSPKVLIYWASTRESGVPDRFTGSGSGTDFTLTITSVKSEDLAVYYCQQYYSYPWTFGGGTRLEIKRTVAAPSVFIFPPSDEQLKSGTASVVCLLNNFYPREAKVQWKVDNALQSGNSQESVTEQDSKDSTYSLSSTLTLSKADYEKHKVYACEVTHQGLSSPVTKSFNRGEC	0.01	0.01			
CDH17v1/TR2#3-(IgG1 KO) (bispecific antibody) heavy: not shown light: DIVMSQSPSSLAVSVGEKVTMSCKSSQSLLHSSNQKNYLAWYQQKPGQSPKVLIYWASTRESGVPDRFTGSGSGTDFTLTITSVKSEDLAVYYCQQYYSYPWTFGGGTRLEIKRTVAAPSVFIFPPSDEQLKSGTASVVCLLNNFYPREAKVQWKVDNALQSGNSQESVTEQDSKDSTYSLSSTLTLSKADYEKHKVYACEVTHQGLSSPVTKSFNRGEC	0.01	0.01			
CDH17v1/TR2#1-(IgG1 KO) (bispecific antibody) heavy: not shown light: DIVMSQSPSSLAVSVGEKVTMSCKSSQSLLHSSNQKNYLAWYQQKPGQSPKVLIYWASTRESGVPDRFTGSGSGTDFTLTITSVKSEDLAVYYCQQYYSYPWTFGGGTRLEIKRTVAAPSVFIFPPSDEQLKSGTASVVCLLNNFYPREAKVQWKVDNALQSGNSQESVTEQDSKDSTYSLSSTLTLSKADYEKHKVYACEVTHQGLSSPVTKSFNRGEC	0.01	0.01			
CDH17v1/TR2#2-(IgG1 KO) (bispecific antibody) heavy: not shown light: DIVMSQSPSSLAVSVGEKVTMSCKSSQSLLHSSNQKNYLAWYQQKPGQSPKVLIYWASTRESGVPDRFTGSGSGTDFTLTITSVKSEDLAVYYCQQYYSYPWTFGGGTRLEIKRTVAAPSVFIFPPSDEQLKSGTASVVCLLNNFYPREAKVQWKVDNALQSGNSQESVTEQDSKDSTYSLSSTLTLSKADYEKHKVYACEVTHQGLSSPVTKSFNRGEC	0.01	0.01			
CDH17v1/TR2#10-(IgG1 KO) (bispecific antibody) heavy: not shown light: DIVMSQSPSSLAVSVGEKVTMSCKSSQSLLHSSNQKNYLAWYQQKPGQSPKVLIYWASTRESGVPDRFTGSGSGTDFTLTITSVKSEDLAVYYCQQYYSYPWTFGGGTRLEIKRTVAAPSVFIFPPSDEQLKSGTASVVCLLNNFYPREAKVQWKVDNALQSGNSQESVTEQDSKDSTYSLSSTLTLSKADYEKHKVYACEVTHQGLSSPVTKSFNRGEC	0.01	0.01			
